Reference: patent US10947272B2, “BACE1 inhibitor peptides” (HOFFMANN-LA ROCHE INC., priority 2015, dated 2021)
Where “and” joins values, the source holds several entries; their conditions need not be identical. Equal values may be shown once. Numbered stars: 1 amine (or outer) side, 2 acyl side, 3 side chain; on linkers, the order of the positions; unused ones are H or OH. Square brackets hold non-standard residues; d marks the D form. Primed or numbered codes have the meaning given here. Ends that are not written are not given here. * marks the point of attachment. PEG(4) = non-peptide PEG linker joining two peptide parts; MetSta(3S,4S) = CSCC[C@H](N[*:1])[C@@H](O)CC(=O)[*:2]; Biotin = O=C1N[C@H]2[C@H](CS[C@H]2CCCCC(=O)*)N1; Sta = CC(C)C[C@H](N)[C@@H](O)CC(=O)O; PEG4 = NCCOCCOCCOCCOCCC(=O)O; PEG3 = NCCOCCOCCOCCC(=O)O; PEG8′ = not defined here; AEEA = NCCOCCOCC(=O)O

B1: Tyr-Pro-Tyr-Phe-Ile-Pro-DLys-PEG(4)-Glu-Val-Asn-Leu*Ala-Ala-Glu-DPro-NH2 × 2TFA (peptide)
peptide: YPYFIP[dK][PEG(4)]EVNLAAE[dP]-NH2
modifications: numbers in words are those of the source; also: Leu11-Ala12 as Leu*Ala hydroxyethylene dipeptide isostere, 2TFA salt
B2: Tyr-Pro-Tyr-Phe-DLys-Leu-Gly-DLys-Gly-Glu-Val-Asn-Leu*Ala-Ala-Glu-DPro-NH2 × 3TFA (peptide)
peptide: YPYF[dK]LG[dK]GEVNLAAE[dP]-NH2
modifications: also: Leu13-Ala14 hydroxyethylene dipeptide isostere (Leu*Ala) in place of the amide bond, 3TFA salt

target: BACE1 (Asp2, β-secretase, Memapsin-2) in HEK293 cells stably expressing human APP695 (UniProt P56817 46-501, limits assumed); assay: cell-based or functional assay
Sequence (P56817 46-501 limits assumed): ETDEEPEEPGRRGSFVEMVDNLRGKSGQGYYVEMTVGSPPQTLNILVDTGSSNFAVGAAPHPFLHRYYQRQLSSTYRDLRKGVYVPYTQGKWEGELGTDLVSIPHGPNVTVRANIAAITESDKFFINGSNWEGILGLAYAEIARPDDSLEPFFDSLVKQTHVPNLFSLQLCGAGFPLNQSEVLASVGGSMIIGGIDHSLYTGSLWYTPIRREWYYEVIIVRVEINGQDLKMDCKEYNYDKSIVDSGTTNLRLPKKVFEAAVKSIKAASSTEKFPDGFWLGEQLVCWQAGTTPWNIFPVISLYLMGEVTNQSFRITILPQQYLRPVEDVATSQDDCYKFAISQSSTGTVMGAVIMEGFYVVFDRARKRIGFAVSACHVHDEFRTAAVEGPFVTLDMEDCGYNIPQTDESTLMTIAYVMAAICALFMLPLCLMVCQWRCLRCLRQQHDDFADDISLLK

[dK]PYFIPLG[dK]GEVN[Sta]VAE[dP]-NH2 (also: TFA salt (3 TFA)) [DLys-Pro-Tyr-Phe-Ile-Pro-Leu-Gly-DLys-Gly-Glu-Val-Asn-Sta-Val-Ala-Glu-DPro-NH2 × 3TFA] was tested. Which “IC 50, cellular Aβ-lowering assay (Aβ40 in supernatant of HEK293 cells expressing human APP695)” value (“IC 50, cellular Aβ-lowering assay” below) did it give?
The value was 2930 nM.

YPYFIPLG[dK]GEVN[Sta]VAE[dP]-NH2 (also: 2TFA salt) [Tyr-Pro-Tyr-Phe-Ile-Pro-Leu-Gly-DLys-Gly-Glu-Val-Asn-Sta-Val-Ala-Glu-DPro-NH2 × 2TFA] was tested. Which “IC 50, cellular Aβ-lowering assay” value did it give?
The value was 94 nM.

H-Y[dK]YFIPLG[dK]GEVN[Sta]VAE[dP]-NH2 (also: TFA salt) [H-Tyr-DLys-Tyr-Phe-Ile-Pro-Leu-Gly-DLys-Gly-Glu-Val-Asn-Sta-Val-Ala-Glu-DPro-NH2] was tested. Which “IC 50, cellular Aβ-lowering assay” value did it give?
Its value is > 40000 nM.

With YPYFIPL[PEG4]EVN[Sta]VAE[dP]-NH2 (also: TFA salt) [Tyr-Pro-Tyr-Phe-Ile-Pro-Leu-PEG(4)-Glu-Val-Asn-Sta-Val-Ala-Glu-DPro-NH2 × TFA] as the binder, how does the “IC 50, cellular Aβ-lowering assay” value read?
Its value is 2.7 nM.

For {Biotin-AEEA}-C[PEG3]YPYFIP[dK]G[dK]GEVN[Sta]VAE[dP]-NH2 (also: TFA salt) [Biotin-PEG2-Cys-PEG3-Tyr-Pro-Tyr-Phe-Ile-Pro-DLys-Gly-DLys-Gly-Glu-Val-Asn-Sta-Val-Ala-Glu-DPro-NH2], which “IC 50, cellular Aβ-lowering assay” value is on record?
Its value is 26 nM.

Ac-[dY]PYFIPLG[dK]GEVN[Sta]VAE[dP]-NH2 (also: TFA salt) [Ac-DTyr-Pro-Tyr-Phe-Ile-Pro-Leu-Gly-DLys-Gly-Glu-Val-Asn-Sta-Val-Ala-Glu-DPro-NH2 × TFA] was tested. Which “IC 50, cellular Aβ-lowering assay” value did it give?
Its value is 110 nM.

H-YPYF[dK]L[PEG4]EVN[Sta]VAE[dP]-NH2 (also: TFA salt) [H-Tyr-Pro-Tyr-Phe-DLys-Leu-PEG(4)-Glu-Val-Asn-Sta-Val-Ala-Glu-DPro-NH2 × 3TFA] was tested. Which “IC 50, cellular Aβ-lowering assay” value did it give?
Its value is > 40000 nM.

With H-[dY]PYFIPLG[dK]GEVN[Sta]VAE[dP]-NH2 (also: TFA salt (2 TFA)) [H-DTyr-Pro-Tyr-Phe-Ile-Pro-Leu-Gly-DLys-Gly-Glu-Val-Asn-Sta-Val-Ala-Glu-DPro-NH2 × 2TFA] as the binder, how does the “IC 50, cellular Aβ-lowering assay” value read?
The value was 810 nM.

For H-YPKFIPL[PEG4]EVN[Sta]VAE[dP]-NH2 (numbers in words are those of the source; also: 3TFA salt) [1 H-Tyr-Pro-Lys-Phe-Ile-Pro-Leu-PEG(4)-Glu-Val-Asn-Sta-Val-Ala-Glu-DPro-NH2 × 3TFA], which “IC 50, cellular Aβ-lowering assay” value is on record?
The value was 52 nM.

H-[dY]PYFIP[dK]G[dK]GEVN[Sta]VAE[dP]-NH2 (also: TFA salt (3 TFA)) [H-DTyr-Pro-Tyr-Phe-Ile-Pro-DLys-Gly-DLys-Gly-Glu-Val-Asn-Sta-Val-Ala-Glu-DPro-NH2 × 3TFA] was tested. Which “IC 50, cellular Aβ-lowering assay” value did it give?
The value was 63 nM.

For B1, which “IC 50, cellular Aβ-lowering assay” value is on record?
Its value is 15 nM.

For H-YP[dK]FIPLG[dK]GEVN[Sta]VAE[dP]-NH2 (also: TFA salt) [H-Tyr-Pro-DLys-Phe-Ile-Pro-Leu-Gly-DLys-Gly-Glu-Val-Asn-Sta-Val-Ala-Glu-DPro-NH2], which “IC 50, cellular Aβ-lowering assay” value is on record?
The value was 29300 nM.

Which “IC 50, cellular Aβ-lowering assay” value does the source give for YPYFI[dK]LG[dK]GEVN[Sta]VAE[dP]-NH2 (also: TFA salt (3 TFA)) [Tyr-Pro-Tyr-Phe-Ile-DLys-Leu-Gly-DLys-Gly-Glu-Val-Asn-Sta-Val-Ala-Glu-DPro-NH2 × 3TFA] here?
Its value is > 40000 nM.

TPKPAQGG[dK]GEVN[Sta]VAE[dP]-NH2 (also: TFA salt (3 TFA)) [TPKPAQG-GkG-EVN-Sta-VAEp-NH2 × 3TFA] was tested. Which “IC 50, cellular Aβ-lowering assay” value did it give?
Its value is > 40000 nM.

Which “IC 50, cellular Aβ-lowering assay” value does the source give for GARFIPAG[dK]GEVN[Sta]VAE[dP]-NH2 (also: TFA salt (3 TFA)) [Gly-Ala-Arg-Phe-Ile-Pro-Ala-Gly-DLys-Gly-Glu-Val-Asn-Sta-Val-Ala-Glu-DPro-NH2 × 3TFA] here?
The value was 420 nM.

For {Biotin-AEEA}-C[PEG8′]YPYFIP[dK]G[dK]GEVN[Sta]VAE[dP]-NH2 (also: TFA salt) [Biotin-PEG2-Cys-PEG8-Tyr-Pro-Tyr-Phe-Ile-Pro-DLys-Gly-DLys-Gly-Glu-Val-Asn-Sta-Val-Ala-Glu-DPro-NH2], which “IC 50, cellular Aβ-lowering assay” value is on record?
Its value is 18 nM.

Which “IC 50, cellular Aβ-lowering assay” value does the source give for YPYFIPLG[dK]GEVN[MetSta(3S,4S)]VAEP-NH2 (also: 2TFA salt) [Tyr-Pro-Tyr-Phe-Ile-Pro-Leu-Gly-DLys-Gly-Glu-Val-Asn-MetSta-Val-Ala-Glu-Pro-NH2 × 2TFA] here?
Its value is 470 nM.

How did the “IC 50, cellular Aβ-lowering assay” value turn out when H-YPYF[dK]PL[PEG4]EVN[Sta]VAE[dP]-NH2 (numbers in words are those of the source; also: TFA salt (2 TFA)) [H-Tyr-Pro-Tyr-Phe-DLys-Pro-Leu-PEG(4)-Glu-Val-Asn-Sta-Val-Ala-Glu-DPro-NH2 × 2TFA] was run?
The value was > 40000 nM.

With YPYFIP[dK]G[dK]GEVN[MetSta(3S,4S)]VAEP-NH2 (also: TFA salt (3 TFA)) [Tyr-Pro-Tyr-Phe-Ile-Pro-DLys-Gly-DLys-Gly-Glu-Val-Asn-MetSta-Val-Ala-Glu-Pro-NH2 × 3TFA] as the binder, how does the “IC 50, cellular Aβ-lowering assay” value read?
Its value is 15 nM.

For YPYFKPAG[dK]GEVN[Sta]VAE[dP]-NH2 (also: 3TFA salt) [Tyr-Pro-Tyr-Phe-Lys-Pro-Ala-Gly-DLys-Gly-Glu-Val-Asn-Sta-Val-Ala-Glu-DPro-NH2 × 3TFA], which “IC 50, cellular Aβ-lowering assay” value is on record?
The value was 71 nM and 46 nM.

With H-GGGYPYFIP[dK]G[dK]GEVN[Sta]VAE[dP]-NH2 (also: TFA salt) [H-Gly-Gly-Gly-Tyr-Pro-Tyr-Phe-Ile-Pro-DLys-Gly-DLys-Gly-Glu-Val-Asn-Sta-Val-Ala-Glu-DPro-NH2 × 3TFA] as the binder, how does the “IC 50, cellular Aβ-lowering assay” value read?
The value was 6.4 nM.

YPKFISAG[dK]GEVN[Sta]VAE[dP]-NH2 (also: 3TFA salt) [YPKFISA-GkG-EVN-Sta-VAEp-NH2 × 3TFA] was tested. Which “IC 50, cellular Aβ-lowering assay” value did it give?
The value was 750 nM.

With YPKFIPLG[dK]GEVN[MetSta(3S,4S)]VAEP-NH2 (also: TFA salt (3 TFA)) [Tyr-Pro-Lys-Phe-Ile-Pro-Leu-Gly-DLys-Gly-Glu-Val-Asn-MetSta-Val-Ala-Glu-Pro-NH2 × 3TFA] as the binder, how does the “IC 50, cellular Aβ-lowering assay” value read?
The value was 760 nM.

How did the “IC 50, cellular Aβ-lowering assay” value turn out when B2 was run?
Its value is 34 nM.

Which “IC 50, cellular Aβ-lowering assay” value does the source give for YPYFIP[dK]G[dK]GEVN[MetSta(3S,4S)]VAE[dF]-NH2 (also: TFA salt (3 TFA)) [Tyr-Pro-Tyr-Phe-Ile-Pro-DLys-Gly-DLys-Gly-Glu-Val-Asn-MetSta-Val-Ala-Glu-DPhe-NH2 × 3TFA] here?
The value was 190 nM.

With H-YPYFIP[dK][PEG4]EVN[Sta]VAE[dP]-NH2 (numbers in words are those of the source; also: TFA salt (2 TFA)) [H-Tyr-Pro-Tyr-Phe-Ile-Pro-DLys-PEG(4)-Glu-Val-Asn-Sta-Val-Ala-Glu-DPro-NH2 × 2TFA] as the binder, how does the “IC 50, cellular Aβ-lowering assay” value read?
Its value is 45 nM.

Which “IC 50, cellular Aβ-lowering assay” value does the source give for YPYFIP[dK][PEG(4)]EVN[MetSta(3S,4S)]VAE[dP]-NH2 (numbers in words are those of the source; also: TFA salt (2 TFA)) [Tyr-Pro-Tyr-Phe-Ile-Pro-DLys-PEG(4)-Glu-Val-Asn-MetSta-Val-Ala-Glu-DPro-NH2 × 2TFA] here?
Its value is 1010 nM.

Which “IC 50, cellular Aβ-lowering assay” value does the source give for YPYF[dK]PLG[dK]GEVN[Sta]VAE[dP]-NH2 (also: TFA salt (3 TFA)) [Tyr-Pro-Tyr-Phe-DLys-Pro-Leu-Gly-DLys-Gly-Glu-Val-Asn-Sta-Val-Ala-Glu-DPro-NH2 × 3TFA] here?
The value was > 40000 nM.

YPYFIPLGGGEVN[Sta]VAE[dP]-NH2 (also: TFA salt) [Tyr-Pro-Tyr-Phe-Ile-Pro-Leu-Gly-Gly-Gly-Glu-Val-Asn-Sta-Val-Ala-Glu-DPro-NH2 × TFA] was tested. Which “IC 50, cellular Aβ-lowering assay” value did it give?
The value was 420 nM.
